Data on two substances can be found in patent US20110039785A1, “POLYPEPTIDE-NUCLEIC ACID CONJUGATES AND USES THEREOF” (Angiochem Inc., priority 2007, published 2011).

In data set [1] the test system is liver, lung, kidney, spleen, and muscle cells. Particulars: cited from earlier work.
The subject of the next data set is BBB. Briefly: in situ brain perfusion in mice. In kind it is in vivo. Particulars: 125 nM radiolabeled conjugate; uptake into the brain; FIG. 20. The protocol:
Transport of the conjugates was measured in vivo using in situ brain perfusion in mice. […] The amount present in the brain parenchyma was determined following brain capillary depletion (FIG. 6).
In situ perfusions using 125 nM of the cleavable and non-cleavable conjugates were performed, and uptake into the brain was measured. Inulin was used as a control. […] Kin values were measured for each protein: The cleavable conjugated has a Kin value of 1.1×10^−4 ml/s/g, the non-cleavable has a Kin value of 4.7×10^−5 ml/s/g, and inulin has a Kin value of 2.1×10^−5 ml/s/g.
Partition into brain compartments of the siRNA following capillary depletion was also measured. This perfusion was also performed at 125 nM.
In situ perfusions were also performed using fluorescent siRNA.

For the substance “T F F Y G G S R G R R N N F R T E E Y (TFFYGGSRGRRNNFRTEEY) [AngioPep-7]”, the “transport into cells of tissues” value in data set [1] was “efficiently transported into liver, lung, kidney, spleen, and muscle cells”.

inulin registered a Kin in the data set on BBB of 2.1e-05 mL/s/g.
